Source: paper PMC9204302, “Novel Pharmacology Following Heteromerization of the Angiotensin II Type 2 Receptor and the Bradykinin Type 2 Receptor” (Frontiers in Endocrinology, 2022)

T1: Venus-tagged B2 receptor (B2-Venus) (human, UniProt P30411 1-391)
T1 construct: made by replacing the Rluc8 coding region of B2-Rluc8 with Venus cDNA; C-terminal end of the tag follows from the parent B2-Rluc8; source: HEK293FT, transiently transfected, in live cells; not shown: Venus, C-terminal, kept
T1 sequence (looked up): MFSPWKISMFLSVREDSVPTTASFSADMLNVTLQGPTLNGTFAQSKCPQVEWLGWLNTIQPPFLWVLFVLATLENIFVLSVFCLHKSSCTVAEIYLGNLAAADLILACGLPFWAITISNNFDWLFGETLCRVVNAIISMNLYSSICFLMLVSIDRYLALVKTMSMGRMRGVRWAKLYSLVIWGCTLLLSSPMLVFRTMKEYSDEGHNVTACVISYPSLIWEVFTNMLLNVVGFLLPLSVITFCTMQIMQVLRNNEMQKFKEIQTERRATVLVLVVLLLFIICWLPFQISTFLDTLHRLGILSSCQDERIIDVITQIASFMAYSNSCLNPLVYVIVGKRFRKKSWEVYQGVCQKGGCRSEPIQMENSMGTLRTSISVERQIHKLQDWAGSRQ


How the values were obtained:
[1] = molecular target: B2 receptor tagged with Rluc8 (B2-Rluc8) (human) (UniProt P30411); test: FRET or BRET; BRET1/eBRET in live HEK293FT cells, one BRET-tagged receptor and one BRET-tagged interacting protein coexpressed, no second receptor; ligand-induced BRET after AngII or BK, 37°C
[2] = molecular target: T1, Venus-tagged B2 receptor (B2-Venus); test: as above; conditions: partners not purified

Row | pEC50 of BK (ligand-induced BRET) [1] | pEC50 of BK (ligand-induced BRET) [2] | Molecule
1 | 7.73 | – | NES-Venus-mGsq (Venus-tagged mini G protein)
2 | – | 7.35 | Rluc8-tagged GRK2 (GRK2-Rluc8) (enzyme, UniProt P25098 1-689, looked up, GPCR kinase 2 (GRK2); construct synthesized by GeneArt; also called GPCR kinase 2; source: HEK293FT, transiently transfected, in live cells) MADLEAVLADVSYLMAMEKSKATPAARASKKILLPEPSIRSVMQKYLEDRGEVTFEKIFSQKLGYLLFRDFCLNHLEEARPLVEFYEEIKKYEKLETEEERVARSREIFDSYIMKELLACSHPFSKSATEHVQGHLGKKQVPPDLFQPYIEEICQNLRGDVFQKFIESDKFTRFCQWKNVELNIHLTMNDFSVHRIIGRGGFGEVYGCRKADTGKMYAMKCLDKKRIKMKQGETLALNERIMLSLVSTGDCPFIVCMSYAFHTPDKLSFILDLMNGGDLHYHLSQHGVFSEADMRFYAAEIILGLEHMHNRFVVYRDLKPANILLDEHGHVRISDLGLACDFSKKKPHASVGTHGYMAPEVLQKGVAYDSSADWFSLGCMLFKLLRGHSPFRQHKTKDKHEIDRMTLTMAVELPDSFSPELRSLLEGLLQRDVNRRLGCLGRGAQEVKESPFFRSLDWQMVFLQKYPPPLIPPRGEVNAADAFDIGSFDEEDTKGIKLLDSDQELYRNFPLTISERWQQEVAETVFDTINAETDRLEARKKAKNKQLGHEEDYALGKDCIMHGYMSKMGNPFLTQWQRRYFYLFPNRLEWRGEGEAPQSLLTMEEIQSVEETQIKERKCLLLKIRGGKQFILQCDSDPELVQWKKELRDAYREAQQLVQRVPKMKNKPRSPVVELSKVPLVQRGSANGL
